# Reference: patent US20200268901A1 (Bristol-Myers Squibb, published 2020)
# Several values for one entry are separate records, joined by “and”; a condition that tells them apart may be missing. Identical values can stand only once. Like-named read-outs stand apart in the source and are kept apart here.
# T1: human GITR on cells (activated human T cells; 3A9-hGITR cells) (human, UniProt Q9Y5U5 26-241)
# T1 sequence (looked up): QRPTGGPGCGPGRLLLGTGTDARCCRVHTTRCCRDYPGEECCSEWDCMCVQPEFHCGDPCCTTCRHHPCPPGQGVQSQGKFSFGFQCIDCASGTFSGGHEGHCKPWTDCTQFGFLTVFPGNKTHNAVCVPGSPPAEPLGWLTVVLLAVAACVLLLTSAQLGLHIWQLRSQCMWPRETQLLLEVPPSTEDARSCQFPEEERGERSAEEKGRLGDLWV
# T2: hCD73-his (full length extracellular domain of human CD73, residues 26-546, C-terminal polyhistidine tag) (human, UniProt P21589 26-546)
# T2 construct: range 26-546; not shown: C-terminal polyhistidine tag
# T2 sequence (looked up): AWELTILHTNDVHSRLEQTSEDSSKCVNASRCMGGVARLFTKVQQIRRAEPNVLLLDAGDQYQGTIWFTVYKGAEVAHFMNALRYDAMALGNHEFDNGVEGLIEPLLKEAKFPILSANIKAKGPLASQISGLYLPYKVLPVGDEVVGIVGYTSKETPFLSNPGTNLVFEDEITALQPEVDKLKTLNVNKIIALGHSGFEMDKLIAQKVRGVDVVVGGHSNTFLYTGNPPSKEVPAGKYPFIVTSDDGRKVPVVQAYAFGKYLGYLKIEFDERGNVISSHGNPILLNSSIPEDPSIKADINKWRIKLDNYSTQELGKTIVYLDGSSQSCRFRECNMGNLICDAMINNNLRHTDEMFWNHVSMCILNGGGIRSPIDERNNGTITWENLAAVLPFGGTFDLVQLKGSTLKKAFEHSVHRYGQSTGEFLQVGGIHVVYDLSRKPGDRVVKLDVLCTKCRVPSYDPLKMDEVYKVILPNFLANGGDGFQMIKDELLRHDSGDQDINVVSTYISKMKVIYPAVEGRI
# T3: human CD73 on Calu6 cells (human, UniProt P21589 27-549)
# T3 sequence (looked up): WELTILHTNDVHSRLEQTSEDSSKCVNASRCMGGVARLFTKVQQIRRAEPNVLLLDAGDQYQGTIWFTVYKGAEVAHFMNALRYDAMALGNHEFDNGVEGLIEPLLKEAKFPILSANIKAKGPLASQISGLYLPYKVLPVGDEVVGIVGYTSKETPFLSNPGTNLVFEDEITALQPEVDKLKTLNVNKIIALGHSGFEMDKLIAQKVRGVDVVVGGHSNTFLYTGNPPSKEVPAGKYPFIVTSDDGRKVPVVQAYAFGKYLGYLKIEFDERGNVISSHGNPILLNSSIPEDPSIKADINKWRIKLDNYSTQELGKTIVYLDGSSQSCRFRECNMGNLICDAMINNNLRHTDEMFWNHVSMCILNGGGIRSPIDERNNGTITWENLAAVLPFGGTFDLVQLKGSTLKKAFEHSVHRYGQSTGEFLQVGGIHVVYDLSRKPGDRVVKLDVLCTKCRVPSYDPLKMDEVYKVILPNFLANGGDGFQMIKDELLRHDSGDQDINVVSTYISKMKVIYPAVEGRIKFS
# Columns and labels:
# [1] = biological target: T1, human GITR on cells (activated human T …); test: cell-based or functional assay
# [2] = biological target: T2, hCD73-his (full length extracellular …); test: SEC, 5.5 uM each; peak 4: free mAb
# Procedure: (§1) Isocratic separations were performed on a Shodex PROTEIN KW-803 column connected to an Prominence Shimadzu UFLC in buffer containing 200 mM K₂HPO₄, 150 mM NaCl, pH 6.8, containing 0.02% Na azide (0.1 μm filtered) running at 0.5 mL/min. Samples were injected onto the column using a SIL-20AC Prominence Shimadzu autosampler, and data were obtained from three online detectors connected in series: a Prominence SPD-20AD diode array UV/vis spectrophotometer followed by a Wyatt miniDAWN™ TREOS Multi-Angle Light Scattering Detector then a Wyatt Optilab T-rEX Refractive Index Detector. Data were collected and analyzed using Astra (Wyatt) and Labsolutions (Shimadzu) software.
# (§2) CD73.4 antibodies having the heavy chain constant regions set forth in Table 14 were also tested for formation of high molecular weight complexes by SEC-MALS and DLS experiments, as described in Example 3.
# [3] = biological target: T2, hCD73-his (full length extracellular …); test: SEC, 5.5 uM each; peak 1: complexes larger than 4:4
# Procedure: as §1, with “The oligomeric state of CD73/antibody complexes were examined by size-exclusion chromatography coupled to an in-line multi-angle light scattering detector (SEC-MALS). Isocratic” for “Isocratic”
# as §2
# [4] = biological target: T3, human CD73 on Calu6 cells; test: cell-based or functional assay
# [5] = biological target: T2, hCD73-his (full length extracellular …); test: SEC, 5.5 uM each; peak 2: about 2:2 complexes
# Procedure: as §1, with “The oligomeric state of CD73/antibody complexes were examined by size-exclusion chromatography coupled to an in-line multi-angle light scattering detector (SEC-MALS). Isocratic” for “Isocratic”
# as §2
# [6] = biological target: T2, hCD73-his (full length extracellular …); test: SEC, 5.5 uM each; peak 3: about 1:1 complexes
# Procedure: as §1, with “The oligomeric state of CD73/antibody complexes were examined by size-exclusion chromatography coupled to an in-line multi-angle light scattering detector (SEC-MALS). Isocratic” for “Isocratic”
# as §2
# [7] = biological target: T3, human CD73 on Calu6 cells; test: cell-based or functional assay; remark: listed apart in the source
# [8] = biological target: T3, human CD73 on Calu6 cells; test: cell-based or functional assay; remark: listed apart in the source
Binder,UV % Peak4 (16.7-19.3 min) [2],UV % Peak1 (<12.9 min) [3],"T1/2 (hr) of CD73 internalization, Calu6 cells [4]","T1/2 (hr) of CD73 internalization, NCI-H292 cells [4]","Ymax (%) of CD73 internalization, Calu6 cells [4]","Ymax (%) of CD73 internalization, NCI-H292 cells [4]",UV % Peak2 (12.9-15.1 min) [5],other results
anti-GITR-IgG2 (antibody) heavy: QVQLVESGGGVVQPGRSLRLSCAASGFTFSSYGMHWVRQAPGKGLEWVAVIWYEGSNKYYADSVKGRFTISRDNSKNTLYLQMNSLRAEDTAVYYCARGGSMVRGDYYYGMDVWGQGTTVTVSSASTKGPSVFPLAPCSRSTSESTAALGCLVKDYFPEPVTVSWNSGALTSGVHTFPAVLQSSGLYSLSSVVTVPSSNFGTQTYTCNVDHKPSNTKVDKTVERKCCVECPPCPAPPVAGPSVFLFPPKPKDTLMISRTPEVTCVVVDVSHEDPEVQFNWYVDGVEVHNAKTKPREEQFNSTFRVVSVLTVVHQDWLNGKEYKCKVSNKGLPAPIEKTISKTKGQPREPQVYTLPPSREEMTKNQVSLTCLVKGFYPSDIAVEWESNGQPENNYKTTPPMLDSDGSFFLYSKLTVDKSRWQQGNVFSCSVMHEALHNHYTQKSLSLSPGK light: not shown,,,,,,,,"EC50 (nM), phospho-p65 NFkB signaling, CD4+ T cells [1]: 12.8 nM; EC50 (nM), phospho-p65 NFkB signaling, CD8+ T cells [1]: 9 nM; Emax (%), phospho-p65 NFkB signaling, CD4+ T cells [1]: 69%; Emax (%), phospho-p65 NFkB signaling, CD8+ T cells [1]: 85%"
CD73.4-IgG2.3-plusTHT (antibody) heavy: QVQLVESGGGVVQPGRSLRLSCAASGFTFSNYGMHWVRQAPGKGLEWVAVILYDGSNKYYPDSVKGRFTISRDNSKNTLYLQMNSLRAEDTAVYYCARGGSSWYPDSFDIWGQGTMVTVSSASTKGPSVFPLAPCSRSTSESTAALGCLVKDYFPEPVTVSWNSGALTSGVHTFPAVLQSSGLYSLSSVVTVPSSNFGTQTYTCNVDHKPSNTKVDKTVERKSCVETHTCPPCPAPPVAGPSVFLFPPKPKDTLMISRTPEVTCVVVDVSHEDPEVQFNWYVDGVEVHNAKTKPREEQFNSTFRVVSVLTVVHQDWLNGKEYKCKVSNKGLPAPIEKTISKTKGQPREPQVYTLPPSREEMTKNQVSLTCLVKGFYPSDIAVEWESNGQPENNYKTTPPMLDSDGSFFLYSKLTVDKSRWQQGNVFSCSVMHEALHNHYTQKSLSLSPGK light: not shown,33.7%,30.6%,0.355 h,0.293 h,81.2%,91.4%,,
CD73.4-IgG2.3-plusGGG (antibody) heavy: QVQLVESGGGVVQPGRSLRLSCAASGFTFSNYGMHWVRQAPGKGLEWVAVILYDGSNKYYPDSVKGRFTISRDNSKNTLYLQMNSLRAEDTAVYYCARGGSSWYPDSFDIWGQGTMVTVSSASTKGPSVFPLAPCSRSTSESTAALGCLVKDYFPEPVTVSWNSGALTSGVHTFPAVLQSSGLYSLSSVVTVPSSNFGTQTYTCNVDHKPSNTKVDKTVERKSCVEGGGCPPCPAPPVAGPSVFLFPPKPKDTLMISRTPEVTCVVVDVSHEDPEVQFNWYVDGVEVHNAKTKPREEQFNSTFRVVSVLTVVHQDWLNGKEYKCKVSNKGLPAPIEKTISKTKGQPREPQVYTLPPSREEMTKNQVSLTCLVKGFYPSDIAVEWESNGQPENNYKTTPPMLDSDGSFFLYSKLTVDKSRWQQGNVFSCSVMHEALHNHYTQKSLSLSPGK light: not shown,34.9%,30%,0.336 h,0.271 h,81.7%,91.6%,23.9%,
"CD73.4-IgG2-C219S (antibody, anti-CD73; also called CD73.4-IgG2.3; CD73.4-IgG2CS) heavy: QVQLVESGGGVVQPGRSLRLSCAASGFTFSNYGMHWVRQAPGKGLEWVAVILYDGSNKYYPDSVKGRFTISRDNSKNTLYLQMNSLRAEDTAVYYCARGGSSWYPDSFDIWGQGTMVTVSSASTKGPSVFPLAPCSRSTSESTAALGCLVKDYFPEPVTVSWNSGALTSGVHTFPAVLQSSGLYSLSSVVTVPSSNFGTQTYTCNVDHKPSNTKVDKTVERKSCVECPPCPAPPVAGPSVFLFPPKPKDTLMISRTPEVTCVVVDVSHEDPEVQFNWYVDGVEVHNAKTKPREEQFNSTFRVVSVLTVVHQDWLNGKEYKCKVSNKGLPAPIEKTISKTKGQPREPQVYTLPPSREEMTKNQVSLTCLVKGFYPSDIAVEWESNGQPENNYKTTPPMLDSDGSFFLYSKLTVDKSRWQQGNVFSCSVMHEALHNHYTQKSLSLSPG light: not shown",28.6%,37%,0.372 h and 0.364 h,0.287 h and 0.284 h,,,,"UV % Peak3 (15.1-16.7 min) [6]: 7.7%; T1/2 (hr) of CD73 internalization, Calu6 cells [7]: 0.6 h; T1/2 (hr) of CD73 internalization, NCI-H292 cells [7]: 0.277 h; Ymax (%) of CD73 internalization, Calu6 cells [7]: 75.6%; Ymax (%) of CD73 internalization, NCI-H292 cells [7]: 78.4%; % internalization, Calu6 cells [8]: 88%; % internalization, H228 cells [8]: 94%; % internalization, H2030 cells [8]: 89%; % internalization, HCC15 cells [8]: 94%; T1/2 min of internalization, Calu6 cells [8]: 6.5 min; T1/2 min of internalization, H228 cells [8]: 13.8 min; T1/2 min of internalization, H2030 cells [8]: 3.7 min; T1/2 min of internalization, HCC15 cells [8]: 3.1 min"
CD73.4-IgG2.3G1-KH (antibody) heavy: QVQLVESGGGVVQPGRSLRLSCAASGFTFSNYGMHWVRQAPGKGLEWVAVILYDGSNKYYPDSVKGRFTISRDNSKNTLYLQMNSLRAEDTAVYYCARGGSSWYPDSFDIWGQGTMVTVSSASTKGPSVFPLAPCSRSTSESTAALGCLVKDYFPEPVTVSWNSGALTSGVHTFPAVLQSSGLYSLSSVVTVPSSNFGTQTYTCNVDHKPSNTKVDKTVERKSCVECPPCPAPPVAGPSVFLFPPKPKDTLMISRTPEVTCVVVDVSHEDPEVKFNWYVDGVEVHNAKTKPREEQYNSTYRVVSVLTVLHQDWLNGKEYKCKVSNKALPAPIEKTISKAKGQPREPQVYTLPPSREEMTKNQVSLTCLVKGFYPSDIAVEWESNGQPENNYKTTPPVLDSDGSFFLYSKLTVDKSRWQQGNVFSCSVMHEALHNHYTQKSLSLSPGK light: not shown,,34.9%,0.396 h,0.28 h,81.6%,91.6%,23.4%,
